This data set in a line: yeast display, Sf9 membrane polyspecificity reagent, FACS + sequencing; frameworks hold sequencing errors. Summed up:
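Sorting gates, low and high (top ~1%), were placed on anti-HA fluorescence to track expression and on streptavidin fluorescence to track reagent binding. A clone's polyreactivity label is taken from the gate it came out of. The reagent was 10% biotinylated, detergent-solubilized Sf9 membrane, applied for 1 hour at 4 °C to galactose-induced yeast display cells.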
In the case of “QDQLVESGGGLVQAGGSLRLSCAASGSIFSNYAMGWYRQAPGKERELVATITSAGSTYYADSVKGRFTISRDNAKNTVYLQLNSLKPEDTAVYYCAALYLGSYDYYDDMDYWGQGTQVTVSS”, the “polyreactivity (PSR sort gate)” value was “low polyreactivity”.

Take “QVQRVESGGGLVQAGGSLRLSCAASGSTFARYAMGWYRQAPGKEREFVAAITYSGGRTYYADTVKGRFTISRDNAKNTVYLQMNSLKPEDTAVYYCAARRRYRYDYWGQGTQVTVSS”: the “polyreactivity (PSR sort gate)” value is listed as “high polyreactivity”.

Take “QDQLVDSGGGLLQAGGSLSLSCAASGHIIQVKTMGWYRQAPGKERELVASISASVGSTYYADSVKGRFTISRDNAKNTVYLQMNSLKPEDTAVYYCAKSLGYSVVRTLSPTGFYYWGQGTQVTVSS”: the “polyreactivity (PSR sort gate)” value is on record as “low polyreactivity”.

Take “QVQLVESGGGLVQAGGSLRLSCAASGRTLGDYGMGWYRQAPGKETQLVAVITSGGSPYYADSVKGRFTISRDNAKNTVYLQMNSLKPEDNAVYFCNARHPYYTVQTGGYDYWGQGTQVTVSS”: the “polyreactivity (PSR sort gate)” value is on record as “low polyreactivity”.

Consider “QDQLVESGGGLVQAGCSLRISCAASGRTFGVYAMGWYRQAPGKERELVAAINRSGTRTYYADSVKGRFTISRDHAKNTVYLPMNSLKPEDTAVYYCAASWYPGSRNYDYWGQGTQVTVSS”, for which the “polyreactivity (PSR sort gate)” value was “high polyreactivity”.

Consider “QVQLVESGGGLVQAGGSLRLSCAASGSIFGYNAMGWSRQAPGKERELVAAITGSGGSTYYADSVKGRFTISRDNAKNTVYLLMNILKPEDTAVYYCADDLVGGPLGYWDYDYWGQGTQVTVSS”, for which the “polyreactivity (PSR sort gate)” value is listed as “low polyreactivity”.

With “QVQLVESGGGLVQAGGSLRLSCAASGIIFALYAMGWYRQAPGKERELVATITYSGGSTYYADSVKGRFTISRDNAKNTVYLQMNSLKPEDSAVYYCNRDQWPWESGYAYNYWGQGTQVTVSS”, the “polyreactivity (PSR sort gate)” value is “low polyreactivity”.

As to “QVQLVESGGGLVQAGCILRLSCAASGRTFHLNAMGWYIQAPGKEREMVAAITNSGGRTSYADSVKVRFTISRDNAKNTVYIQMNSLKPEDTAVYYFNVEVTYSSGKYYYWGQGTQVTVSS”, the “polyreactivity (PSR sort gate)” value is “low polyreactivity”.

Consider “QVQLVESGGGLVQARGSLRLSCAASGFTFYSNAMGWYRQAPGKERELVAVINSDDDSTYYADSVKGRFTISRDNAKNTVYLQMNSLKPEDTAVYYCNKVWRVGKYPYSDRYYFGGGYWGQGTQVTVSS”, for which the “polyreactivity (PSR sort gate)” value is given as “high polyreactivity”.

As for “QVQLVESGGGLVQAGGSLRLSCAASGSIFYRYAMGWYRQAPGKERELVAAISWGGGRTYYADSVKGRFTISRDNAKNTVYLLMKSLKPEDTAVYYCNAVQSYYTVHRLDYWGQGTQVTVSS”, the “polyreactivity (PSR sort gate)” value is recorded as “high polyreactivity”.

In the case of “QVQHVESVGGLVQAGGSLRLSCAPSGSIFWDNAMGWYRQAPGKERELVAAITSSGDTTYYADSVKGRFTISRDNAKNTVYLQMNSLKQEDTAVYYCAKVFGPTDYLTGTFKGDYWGQGTQVTVSS”, the “polyreactivity (PSR sort gate)” value was “low polyreactivity”.

For “QVQLVESGGGLVQAGGSLRLSCADSGLTFQRYAMGWYRQAPGKERELVAAISQRGSSTYYADSVKGRFTISRDNAKNTVYLQMNSLKPEDTAVYYCNARPYLFWLSIYDYWGQGTQVTVSS”, the “polyreactivity (PSR sort gate)” value is “low polyreactivity”.

Regarding “QVQLLESGGGLDQAGGSLRLSTAASGSTFGVYAMGWYRQARGKEREMVAAISRRGGSTYYADSVKGRFTISRDNAKNTVYLQMNSLKPEDTAVYYCAARGGQMEYWGQGTQVTVSS”, the “polyreactivity (PSR sort gate)” value is listed as “high polyreactivity”.

Turning to “QVQLVESGGGLVQAGGSLRLSCAASGSIFYTYAMGWYRQAPGKERELVADITTNGGNTYYADSVKGRFTISRDNAKNTVYLQMNSLKPEDTAVYYCARDRYDEPDEGDYDYWGQGTQVTVSS”, the “polyreactivity (PSR sort gate)” value is reported as “low polyreactivity”.

On to “QVQLVESGGGLVQAGGSLRLSCAASGLIFRFNAMGWYRQAPGKERELVAAITRAGSTYYADSVKGRFTISRDNAKNTVYLQMNSLKPEDTAVYYCAAGQYRLPQRGYGYWGQGTQVTVSS”, for which the “polyreactivity (PSR sort gate)” value is “high polyreactivity”.

Turning to “QVQLVESGGGLVQAGGSLRLSCAASGSTFYPYAMGWYRQAPGKERELVAAISSGGSTYYADSVKGRFTISRDNAKNTVYLQMNSLKPEDTAVYYCAADLYYAYYWGQGTQVTVSS”, the “polyreactivity (PSR sort gate)” value was “low polyreactivity”.

Values taken from the nanobody polyreactivity screen of Harvey et al. (2022).
